The source of these data is PMC9616737 (2022).

This experiment concerns the target human plasma fibronectin (human).

Chain of human plasma fibronectin (human) (P02751 other isoform, or with tags, fused parts or gaps): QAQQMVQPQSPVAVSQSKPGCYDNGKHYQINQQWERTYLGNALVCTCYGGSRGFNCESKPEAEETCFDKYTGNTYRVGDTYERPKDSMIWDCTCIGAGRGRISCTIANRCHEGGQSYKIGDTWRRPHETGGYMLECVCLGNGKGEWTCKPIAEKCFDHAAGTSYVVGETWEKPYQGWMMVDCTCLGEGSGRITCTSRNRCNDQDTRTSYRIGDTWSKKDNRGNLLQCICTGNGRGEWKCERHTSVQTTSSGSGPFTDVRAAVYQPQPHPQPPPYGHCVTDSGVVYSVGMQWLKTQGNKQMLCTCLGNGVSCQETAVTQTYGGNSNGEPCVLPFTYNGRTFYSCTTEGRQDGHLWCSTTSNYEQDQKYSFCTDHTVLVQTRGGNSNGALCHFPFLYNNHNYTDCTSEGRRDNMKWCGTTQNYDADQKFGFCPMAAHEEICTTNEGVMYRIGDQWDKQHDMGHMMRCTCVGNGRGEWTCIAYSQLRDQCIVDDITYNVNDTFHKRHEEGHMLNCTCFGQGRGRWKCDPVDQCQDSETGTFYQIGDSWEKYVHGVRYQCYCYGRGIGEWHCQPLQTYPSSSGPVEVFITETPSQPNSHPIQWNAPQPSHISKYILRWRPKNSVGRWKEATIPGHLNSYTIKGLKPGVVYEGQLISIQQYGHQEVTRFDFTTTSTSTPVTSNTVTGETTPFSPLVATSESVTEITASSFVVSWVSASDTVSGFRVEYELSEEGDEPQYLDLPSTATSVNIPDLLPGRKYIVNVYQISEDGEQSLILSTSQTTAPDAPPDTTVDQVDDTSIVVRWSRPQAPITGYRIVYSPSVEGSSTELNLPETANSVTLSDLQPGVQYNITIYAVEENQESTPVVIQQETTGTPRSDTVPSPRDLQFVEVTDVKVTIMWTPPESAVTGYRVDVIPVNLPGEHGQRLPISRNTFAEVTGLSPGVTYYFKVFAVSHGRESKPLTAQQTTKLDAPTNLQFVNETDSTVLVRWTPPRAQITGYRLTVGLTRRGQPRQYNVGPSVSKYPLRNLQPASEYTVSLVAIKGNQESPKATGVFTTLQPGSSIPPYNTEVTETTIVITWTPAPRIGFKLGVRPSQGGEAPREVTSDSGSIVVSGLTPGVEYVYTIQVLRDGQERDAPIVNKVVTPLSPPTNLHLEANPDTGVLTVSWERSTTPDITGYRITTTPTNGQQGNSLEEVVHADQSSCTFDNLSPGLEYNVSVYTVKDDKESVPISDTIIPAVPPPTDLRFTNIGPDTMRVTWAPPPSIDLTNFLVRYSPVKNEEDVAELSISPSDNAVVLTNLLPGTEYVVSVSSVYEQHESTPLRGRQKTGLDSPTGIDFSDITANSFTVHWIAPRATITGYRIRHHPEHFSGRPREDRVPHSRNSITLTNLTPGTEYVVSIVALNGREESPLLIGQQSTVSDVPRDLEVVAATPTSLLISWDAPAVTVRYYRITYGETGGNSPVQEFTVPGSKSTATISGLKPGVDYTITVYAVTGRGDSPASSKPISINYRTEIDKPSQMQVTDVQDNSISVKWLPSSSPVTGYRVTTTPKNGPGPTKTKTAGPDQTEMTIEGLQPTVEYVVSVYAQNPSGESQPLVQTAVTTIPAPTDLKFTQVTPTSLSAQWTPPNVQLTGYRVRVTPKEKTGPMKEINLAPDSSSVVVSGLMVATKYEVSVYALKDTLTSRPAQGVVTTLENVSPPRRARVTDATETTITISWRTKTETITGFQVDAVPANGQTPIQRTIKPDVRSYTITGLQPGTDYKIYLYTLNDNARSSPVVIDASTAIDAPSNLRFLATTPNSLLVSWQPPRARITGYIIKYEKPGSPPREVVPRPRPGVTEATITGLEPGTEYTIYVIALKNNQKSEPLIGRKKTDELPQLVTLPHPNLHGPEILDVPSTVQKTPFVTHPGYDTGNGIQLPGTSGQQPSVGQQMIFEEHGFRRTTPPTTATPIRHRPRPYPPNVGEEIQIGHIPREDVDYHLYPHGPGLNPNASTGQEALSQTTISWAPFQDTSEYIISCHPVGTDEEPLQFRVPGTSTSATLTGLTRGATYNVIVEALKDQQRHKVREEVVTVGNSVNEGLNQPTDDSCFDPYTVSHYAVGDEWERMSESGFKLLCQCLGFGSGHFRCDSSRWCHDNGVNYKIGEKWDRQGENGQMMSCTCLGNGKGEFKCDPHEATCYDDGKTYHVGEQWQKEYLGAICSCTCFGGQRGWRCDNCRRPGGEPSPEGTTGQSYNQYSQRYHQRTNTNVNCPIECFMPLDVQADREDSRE

B1: recombinant embigin extracellular domain GST-fusion protein (EMB-GST) (domain or fragment)
chain: DGSAPDSPFTSPPLREEIMANNFSLESHNISLTEHSSMPVEKNITLERPSNVNLTCQFTTSGDLNAVNVTWKKDGEQLENNYLVSATGSTLYTQYRFTIINSKQMGSYSCFFREEKEQRGTFNFKVPELHGKNKPLISYVGDSTVLTCKCQNCFPLNWTWYSSNGSVKVPVGVQMNKYVINGTYANETKLKITQLLEEDGESYWCRALFQLGESEEHIELVVLSYLVP
As to B1, the Kd (as a rule, the constant that tells how readily two partners part at equilibrium) is less than 50 nM.
